Data on two substances can be found in patent publication US20050287608A1.

The test addresses ubiquitinated proteins of yeast cells. The experiment in a line: Flag purification from yeast cells, anti-Ub immunoblot.

Take “Flag-rad23^uba1 (yeast Rad23 L183A, amino-terminal Flag epitope) (from UniProt P32628 1-398)”: the reduction in the amount of ubiquitinated protein recovered, against Flag-Rad23 stood at 80%.

“Flag-rad23^Δuba1 (yeast Rad23 with residues 141-190 removed, amino-terminal Flag epitope) (from UniProt P32628 1-140; P32628 191-398)” gave an interaction remaining, compared to the wildtype protein of 1%.
